Experiments:
[1] = target: Recombinant Human FGFR1 alpha (IIIc) Fc Chimera Protein (R&D systems, 658-FR-050) (human) (UniProt P11362); experiment: ELISA: FGFR1-Fc coated at 0.5 ug/ml, FGF sample at 80 ng/ml, biotinylated anti-FGF antibody BAM233 and streptavidin-HRP, blank subtracted; sample kept 6 h at 37 C
[2] = target: Recombinant Human FGFR1 alpha (IIIc) Fc Chimera Protein (R&D systems, 658-FR-050) (human) (UniProt P11362); experiment: ELISA: FGFR1-Fc coated at 0.5 ug/ml, FGF sample at 80 ng/ml, biotinylated anti-FGF antibody BAM233 and streptavidin-HRP, blank subtracted; sample kept 0 h at 37 C
[3] = target: Recombinant Human FGFR1 alpha (IIIc) Fc Chimera Protein (R&D systems, 658-FR-050) (human) (UniProt P11362); experiment: ELISA: FGFR1-Fc coated at 0.5 ug/ml, FGF sample at 80 ng/ml, biotinylated anti-FGF antibody BAM233 and streptavidin-HRP, blank subtracted; sample kept 24 h at 37 C
[4] = target: Recombinant Human FGFR1 alpha (IIIc) Fc Chimera Protein (R&D systems, 658-FR-050) (human) (UniProt P11362); experiment: ELISA: FGFR1-Fc coated at 0.5 ug/ml, FGF sample at 80 ng/ml, biotinylated anti-FGF antibody BAM233 and streptavidin-HRP, blank subtracted; sample kept 48 h at 37 C

Recombinant Human FGFR1 alpha (IIIc) Fc Chimera Protein (R&D systems, 658-FR-050) (human), sequence (P11362 22-376, change not shown): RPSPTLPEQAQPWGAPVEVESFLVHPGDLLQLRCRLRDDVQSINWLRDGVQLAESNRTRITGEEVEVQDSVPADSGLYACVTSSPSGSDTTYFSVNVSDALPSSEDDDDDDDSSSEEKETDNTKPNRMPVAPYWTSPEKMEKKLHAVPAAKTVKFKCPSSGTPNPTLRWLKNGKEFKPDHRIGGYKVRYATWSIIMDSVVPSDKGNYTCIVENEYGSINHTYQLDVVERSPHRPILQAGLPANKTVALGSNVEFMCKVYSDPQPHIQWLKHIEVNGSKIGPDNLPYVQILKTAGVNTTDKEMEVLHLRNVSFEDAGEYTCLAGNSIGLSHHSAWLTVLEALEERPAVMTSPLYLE

B1: FGF320 (FGF1 + FGF2-CHIMERA_Pig) (ligand)
chain: MANYKKPKLLYCSNGGHFLRIHPDGRVDGVREKSDPHIKLQLQAEERGVVSIKGVCANRYLAMDTSGLLYGSQTPSEECLFLERLEENHYNTYTSKKHAEKNWFVGLKKNGSCKRGPRTHYGQKAILFLPLPV
B1 was tested, and the Absorbance (450 nm) (absorbance (450 nm)) [1] was 0.9, the Absorbance (450 nm) (absorbance (450 nm)) [2] was 2.1 and the Absorbance (450 nm) (absorbance (450 nm)) [3] was 0.7. For the same binder, the Absorbance (450 nm) (absorbance (450 nm)) [4] was 0.6.

B2: FGF323 (FGF1 + FGF2-CHIMERA_Pig_C12S; Q43I; A62C; H89G; C113A) (ligand)
chain: MANYKKPKLLYSSNGGHFLRIHPDGRVDGVREKSDPHIKLQLIAEERGVVSIKGVCANRYLCMDTSGLLYGSQTPSEECLFLERLEENGYNTYTSKKHAEKNWFVGLKKNGSAKRGPRTHYGQKAILFLPLPV
With B2 the Absorbance (450 nm) (absorbance (450 nm)) [1] was 2.4, the Absorbance (450 nm) (absorbance (450 nm)) [2] was 2.5 and the Absorbance (450 nm) (absorbance (450 nm)) [3] was 2.3. The Absorbance (450 nm) (absorbance (450 nm)) [4] was 2.3.

From patent US20260250341A1
